Test results published in patent US20220378887A1 (GENOIMMUNE THERAPEUTICS, published 2022).

Target: T1, HLA-A*11:01 (MHC-I molecules on the surfaces of T2 cells) (human)
T1 construct: It only names the antibody against 'the corresponding HLA typing (HLA-A*11:01)'; also called HLA molecules
Assay: T2 cell MHC-I stabilisation assay, flow cytometry with FITC anti-HLA-A*11:01 antibody
Protocol: The synthesized polypeptides were added to 2*10⁵ T2 cells, and human β2 micro-globulin (final concentration of 3 μg/ml) was added and cultivated in 24-well plate. The plate was cultured in an incubator (37° C., 5% CO₂) overnight.
200 g of cultured cells was centrifuged for 5 minutes to collect the cells. After washing twice with PBS, the cells were directly incubated with FITC-labeled monoclonal antibody against the corresponding HLA typing (HLA-A*11:01), and maintained at 4° C. for 30 minutes.

| Binder | FI (fluorescence index) |
| --- | --- |
| VTVGAVGVGK (Synthesized mutant KRAS neoantigen peptide; also called core polypeptide) [VTVGAVGVGK polypeptide (KRAS; SEQ ID NO: 4)] | 2.02 |
| VTVGADGVGK (Synthesized mutant KRAS neoantigen peptide; also called core polypeptide) [VTVGADGVGK polypeptide (KRAS; SEQ ID NO: 1)] | 2.83 |
| VSVGAVGVGK (Synthesized mutant KRAS neoantigen peptide; also called core polypeptide) [VSVGAVGVGK polypeptide (KRAS; SEQ ID NO: 6)] | 2.42 |
| VTVGAAGVGK (Synthesized mutant KRAS neoantigen peptide; also called core polypeptide) [VTVGAAGVGK polypeptide (KRAS; SEQ ID NO: 5)] | 2.12 |
| VTGAVGVGK (Synthesized mutant KRAS neoantigen peptide, printed as a 9-mer; also called core polypeptide) [VTGAVGVGK polypeptide (KRAS; SEQ ID NO: 3)] | 2.37 |
